The results in this text go back to patent US20210115121A1.

The test concerns the target human Tau P301S from brain of P301S Tau transgenic mice (human) (UniProt P10636). Nature of the test: cell-based or functional assay.

Sequence of human Tau P301S from brain of P301S Tau transgenic mice (human) (P10636 other isoform, or with tags, fused parts or gaps P301S P301S P301S P301S): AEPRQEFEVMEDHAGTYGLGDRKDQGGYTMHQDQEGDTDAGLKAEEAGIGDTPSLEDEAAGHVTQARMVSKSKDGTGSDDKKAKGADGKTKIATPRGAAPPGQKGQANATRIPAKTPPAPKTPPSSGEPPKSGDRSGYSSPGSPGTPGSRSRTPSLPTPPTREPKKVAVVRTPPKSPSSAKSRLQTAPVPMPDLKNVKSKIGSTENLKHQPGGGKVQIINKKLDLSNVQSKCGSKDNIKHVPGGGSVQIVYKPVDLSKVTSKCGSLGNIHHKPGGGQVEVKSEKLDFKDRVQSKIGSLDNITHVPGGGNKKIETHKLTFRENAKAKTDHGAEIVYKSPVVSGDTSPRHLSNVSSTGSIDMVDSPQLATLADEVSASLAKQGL

B1: AB1 having a rat VL of SEQ ID NO: 7 and a rat VH of SEQ ID NO.:8 (antibody, IgG1, V domains shown)
VH: EVKLEESGPGLMQPSETLSLTCTVSGFSLTSNDIAWVRQPLGKGLVWMGTIWTDGSTNYNSAVQSRLSISRDTSKSQFFLKMNSLQPEDTGTYYCARHRLYYGAFDYWGQGTMVTVS
VL: DIVMTQTPVSLSVTLGDQASISCRSSQSLEYSDGYTYLEWYLQKPGQSPQLLIYEVSNRFSGVPDRFIGSGSGTDFTLKISRVEPEDLGVYYCFQATHNPYTFGAGTKLEIK
In turn, B1 returned an IC50 (cellular Tau aggregation assay) of 2 nM and an Imax (maximal efficacy at 300 nM, cellular Tau aggregation assay) of 93%.
